# Test results reported in article PMC10057847, “Precision engineering of biological function with large-scale measurements and machine learning” (PLOS ONE, 2023).
# Where “and” joins values, the source holds several entries; their conditions need not be identical. Equal values may be shown once.
# System: eYFP under the control of the lactose operator (lacO)
# Experiment: in vivo dose-response curves of LacI variants to IPTG measured with flow cytometry (eYFP output), fit to the Hill equation
# Type: cell-based, E. coli
# Details: for dose-response phenotype (in words): IPTG dose-response by flow cytometry; for geo_mean: geometric mean of the YFP signal measured by cytometry: clone A; for n: the Hill coefficient: IPTG dose-response; for log_g0: the base-10 logarithm of G0 (in MEF) / log_ginf: the base-10 logarithm of G∞ (in MEF): value is log10; for log_ginf: the base-10 logarithm of G∞ (in MEF): saturating output
# Method: Dose-response curves were measured with flow cytometry using E. coli MG1655Δlac transformed with variants of the pVER plasmid, described previously. The plasmid contained different variants of the lacI coding DNA sequence (CDS), as described in the text, and an expression cassette with enhanced yellow fluorescent protein (eYFP) under the control of the lactose operator (lacO). The lacI CDS was verified with Sanger sequencing for each variant.
# All cultures were grown in a rich M9 media (3 g/L KH2PO4, 6.78 g/L Na2HPO4, 0.5 g/L NaCl, 1 g/L NH4Cl, 0.1 mmol/L CaCl2, 2 mmol/L MgSO4, 4% glycerol, and 20 g/L casamino acids) supplemented with 50 μg/mL kanamycin.
# For flow cytometry measurements, E. coli cultures were grown in a laboratory automation system that included an automated liquid handler (Hamilton, STAR), an automated plate sealer (4titude, a4S), an automated de-sealer (Brooks, XPeel), and two multi-mode plate readers (BioTek, Neo2SM).
# Cultures were grown in clear polystyrene 96-well plates with 1.1 mL square wells (4titude, 4ti-0255). The culture volume per well was 0.5 mL. Before incubation, each 96-well growth plate was sealed by the automated plate sealer with a gas permeable membrane (4titude, 4ti-0598). Growth plates were incubated in one of the multi-mode plate readers at 37°C with a 1°C gradient applied from the bottom to the top of the incubation chamber to minimize condensation on the inside of the membrane. The plate readers were set for double-orbital shaking at 807 cycles per minute. Optical density at 600 nm (OD600) was measured every 5 minutes during incubation, with continuous shaking applied between measurements (optical density at 700 nm and YFP fluorescence were also measured every 5 minutes). After incubation, the automated de-sealer was used to remove the gas-permeable membrane from each 96-well plate to enable automated passaging of cultures and sample preparation for flow cytometry measurements.
# For each measurement, starter cultures were prepared from glycerol freezer stock in 5 mL of rich M9 media in a 14 mL snap-cap culture tubes. Starter cultures were incubated at 37°C with orbital shaking at 300 rpm for between 4 h and 24 h prior to loading the automation system. The automation system then prepared 96-well growth plates, sealed and de-sealed the growth plates, incubated the growth plates, and prepared flow cytometry sample plates. The automated culture protocol consisted of the following steps: […]
# [1] = basal output, Hill fit of cytometry data, posterior mean
# [2] = Hill fit of cytometry data, posterior mean
molecule,measurement,setting,value
"pVER-IPTG-WT(Q181H): LacI variant: Q181H (protein, UniProt P03023 1-360, looked up, variant Q181H) Lactose operon repressor: MKPVTLYDVAEYAGVSYQTVSRVVNQASHVSAKTREKVEAAMAELNYIPNRVAQQLAGKQSLLIGVATSSLALHAPSQIVAAIKSRADQLGASVVVSMVERSGVEACKAAVHNLLAQRVSGLIINYPLDDQDAIAVEAACTNVPALFLDVSDQTPINSIIFSHEDGTRLGVEHLVALGHQHIALLAGPLSSVSARLRLAGWHKYLTRNQIQPIAEREGDWSAMSGFQQTMQMLNEGIVPTAMLVANDQMALGAMRAITESGLRVGADISVVGYDDTEDSSCYIPPLTTIKQDFRLLGQTSVDRLLQLSQGQAVKGNQLLPVSLVKRKTTLAPNTQTASPRALADSLMQLARQVSRLESGQ",dose-response phenotype (in words),,silent in wild-type background
"pVER-IPTG-WT(Q231R): LacI variant: Q231R (protein, UniProt P03023 1-360, looked up, variant Q231R) Lactose operon repressor: MKPVTLYDVAEYAGVSYQTVSRVVNQASHVSAKTREKVEAAMAELNYIPNRVAQQLAGKQSLLIGVATSSLALHAPSQIVAAIKSRADQLGASVVVSMVERSGVEACKAAVHNLLAQRVSGLIINYPLDDQDAIAVEAACTNVPALFLDVSDQTPINSIIFSHEDGTRLGVEHLVALGHQQIALLAGPLSSVSARLRLAGWHKYLTRNQIQPIAEREGDWSAMSGFQQTMRMLNEGIVPTAMLVANDQMALGAMRAITESGLRVGADISVVGYDDTEDSSCYIPPLTTIKQDFRLLGQTSVDRLLQLSQGQAVKGNQLLPVSLVKRKTTLAPNTQTASPRALADSLMQLARQVSRLESGQ",dose-response phenotype (in words),,silent in wild-type background
"pVER-IPTG-001: LacI variant: Q55H D130E V192A T258I D267N Y273H N333I (protein, UniProt P03023 1-360, looked up, variant Q55H D130E V192A T258I D267N Y273H N333I) Lactose operon repressor: MKPVTLYDVAEYAGVSYQTVSRVVNQASHVSAKTREKVEAAMAELNYIPNRVAQHLAGKQSLLIGVATSSLALHAPSQIVAAIKSRADQLGASVVVSMVERSGVEACKAAVHNLLAQRVSGLIINYPLDEQDAIAVEAACTNVPALFLDVSDQTPINSIIFSHEDGTRLGVEHLVALGHQQIALLAGPLSSASARLRLAGWHKYLTRNQIQPIAEREGDWSAMSGFQQTMQMLNEGIVPTAMLVANDQMALGAMRAIIESGLRVGANISVVGHDDTEDSSCYIPPLTTIKQDFRLLGQTSVDRLLQLSQGQAVKGNQLLPVSLVKRKTTLAPITQTASPRALADSLMQLARQVSRLESGQ",geo_mean: geometric mean of the YFP signal measured by cytometry,IPTG 0.0 μmol/L,26059.303161112988 and 23664.3303473106
same,geo_mean: geometric mean of the YFP signal measured by cytometry,IPTG 2.0 μmol/L,26140.44981266789
same,geo_mean: geometric mean of the YFP signal measured by cytometry,IPTG 4.0 μmol/L,26093.69376618197
same,geo_mean: geometric mean of the YFP signal measured by cytometry,IPTG 8.0 μmol/L,26130.45714766927
"pVER-IPTG-WT(V271M): LacI variant: V271M (protein, UniProt P03023 1-360, looked up, variant V271M) Lactose operon repressor: MKPVTLYDVAEYAGVSYQTVSRVVNQASHVSAKTREKVEAAMAELNYIPNRVAQQLAGKQSLLIGVATSSLALHAPSQIVAAIKSRADQLGASVVVSMVERSGVEACKAAVHNLLAQRVSGLIINYPLDDQDAIAVEAACTNVPALFLDVSDQTPINSIIFSHEDGTRLGVEHLVALGHQQIALLAGPLSSVSARLRLAGWHKYLTRNQIQPIAEREGDWSAMSGFQQTMQMLNEGIVPTAMLVANDQMALGAMRAITESGLRVGADISVMGYDDTEDSSCYIPPLTTIKQDFRLLGQTSVDRLLQLSQGQAVKGNQLLPVSLVKRKTTLAPNTQTASPRALADSLMQLARQVSRLESGQ",dose-response phenotype (in words),,silent in wild-type background
"pVER-IPTG-WT(S190C): LacI variant: S190C (protein, UniProt P03023 1-360, looked up, variant S190C) Lactose operon repressor: MKPVTLYDVAEYAGVSYQTVSRVVNQASHVSAKTREKVEAAMAELNYIPNRVAQQLAGKQSLLIGVATSSLALHAPSQIVAAIKSRADQLGASVVVSMVERSGVEACKAAVHNLLAQRVSGLIINYPLDDQDAIAVEAACTNVPALFLDVSDQTPINSIIFSHEDGTRLGVEHLVALGHQQIALLAGPLCSVSARLRLAGWHKYLTRNQIQPIAEREGDWSAMSGFQQTMQMLNEGIVPTAMLVANDQMALGAMRAITESGLRVGADISVVGYDDTEDSSCYIPPLTTIKQDFRLLGQTSVDRLLQLSQGQAVKGNQLLPVSLVKRKTTLAPNTQTASPRALADSLMQLARQVSRLESGQ",dose-response phenotype (in words),,silent in wild-type background
"pVER-IPTG-WT(S279T/V136E): LacI variant: V136E S279T (protein, UniProt P03023 1-360, looked up, variant V136E S279T) Lactose operon repressor: MKPVTLYDVAEYAGVSYQTVSRVVNQASHVSAKTREKVEAAMAELNYIPNRVAQQLAGKQSLLIGVATSSLALHAPSQIVAAIKSRADQLGASVVVSMVERSGVEACKAAVHNLLAQRVSGLIINYPLDDQDAIAEEAACTNVPALFLDVSDQTPINSIIFSHEDGTRLGVEHLVALGHQQIALLAGPLSSVSARLRLAGWHKYLTRNQIQPIAEREGDWSAMSGFQQTMQMLNEGIVPTAMLVANDQMALGAMRAITESGLRVGADISVVGYDDTEDTSCYIPPLTTIKQDFRLLGQTSVDRLLQLSQGQAVKGNQLLPVSLVKRKTTLAPNTQTASPRALADSLMQLARQVSRLESGQ",dose-response phenotype (in words),,more complicated non-monotonic dose-response (high-low-high-low)
"pVER-IPTG-WT(V136E/G200C): LacI variant: V136E G200C (protein, UniProt P03023 1-360, looked up, variant V136E G200C) Lactose operon repressor: MKPVTLYDVAEYAGVSYQTVSRVVNQASHVSAKTREKVEAAMAELNYIPNRVAQQLAGKQSLLIGVATSSLALHAPSQIVAAIKSRADQLGASVVVSMVERSGVEACKAAVHNLLAQRVSGLIINYPLDDQDAIAEEAACTNVPALFLDVSDQTPINSIIFSHEDGTRLGVEHLVALGHQQIALLAGPLSSVSARLRLACWHKYLTRNQIQPIAEREGDWSAMSGFQQTMQMLNEGIVPTAMLVANDQMALGAMRAITESGLRVGADISVVGYDDTEDSSCYIPPLTTIKQDFRLLGQTSVDRLLQLSQGQAVKGNQLLPVSLVKRKTTLAPNTQTASPRALADSLMQLARQVSRLESGQ",EC50,"IPTG as ligand, Hill fit of cytometry data, posterior mean, read-out: log_ec50: the base-10 logarithm of EC50 (converted)",2480 nM
same,dose-response phenotype (in words),,band-stop dose-response curve
same,n: the Hill coefficient,Hill fit of cytometry data,2.118
same,log_g0: the base-10 logarithm of G0 (in MEF),[1],3.294 MEF
same,log_ginf: the base-10 logarithm of G∞ (in MEF),[2],4.168 MEF
"pVER-IPTG-WT(N208Y): LacI variant: N208Y (protein, UniProt P03023 1-360, looked up, variant N208Y) Lactose operon repressor: MKPVTLYDVAEYAGVSYQTVSRVVNQASHVSAKTREKVEAAMAELNYIPNRVAQQLAGKQSLLIGVATSSLALHAPSQIVAAIKSRADQLGASVVVSMVERSGVEACKAAVHNLLAQRVSGLIINYPLDDQDAIAVEAACTNVPALFLDVSDQTPINSIIFSHEDGTRLGVEHLVALGHQQIALLAGPLSSVSARLRLAGWHKYLTRYQIQPIAEREGDWSAMSGFQQTMQMLNEGIVPTAMLVANDQMALGAMRAITESGLRVGADISVVGYDDTEDSSCYIPPLTTIKQDFRLLGQTSVDRLLQLSQGQAVKGNQLLPVSLVKRKTTLAPNTQTASPRALADSLMQLARQVSRLESGQ",dose-response phenotype (in words),,silent in wild-type background
"pVER-IPTG-WT: wild-type LacI (lac repressor) on the pVER plasmid (protein, UniProt P03023 1-360, looked up) Lactose operon repressor: MKPVTLYDVAEYAGVSYQTVSRVVNQASHVSAKTREKVEAAMAELNYIPNRVAQQLAGKQSLLIGVATSSLALHAPSQIVAAIKSRADQLGASVVVSMVERSGVEACKAAVHNLLAQRVSGLIINYPLDDQDAIAVEAACTNVPALFLDVSDQTPINSIIFSHEDGTRLGVEHLVALGHQQIALLAGPLSSVSARLRLAGWHKYLTRNQIQPIAEREGDWSAMSGFQQTMQMLNEGIVPTAMLVANDQMALGAMRAITESGLRVGADISVVGYDDTEDSSCYIPPLTTIKQDFRLLGQTSVDRLLQLSQGQAVKGNQLLPVSLVKRKTTLAPNTQTASPRALADSLMQLARQVSRLESGQ",n: the Hill coefficient,Hill fit of cytometry data,1.559
same,G0,basal output,158 MEF
same,log_g0: the base-10 logarithm of G0 (in MEF),[1],2.097 MEF
same,log_ginf: the base-10 logarithm of G∞ (in MEF),[2],4.44 MEF
"pVER-IPTG-WT(V136E): LacI variant: V136E (protein, UniProt P03023 1-360, looked up, variant V136E) Lactose operon repressor: MKPVTLYDVAEYAGVSYQTVSRVVNQASHVSAKTREKVEAAMAELNYIPNRVAQQLAGKQSLLIGVATSSLALHAPSQIVAAIKSRADQLGASVVVSMVERSGVEACKAAVHNLLAQRVSGLIINYPLDDQDAIAEEAACTNVPALFLDVSDQTPINSIIFSHEDGTRLGVEHLVALGHQQIALLAGPLSSVSARLRLAGWHKYLTRNQIQPIAEREGDWSAMSGFQQTMQMLNEGIVPTAMLVANDQMALGAMRAITESGLRVGADISVVGYDDTEDSSCYIPPLTTIKQDFRLLGQTSVDRLLQLSQGQAVKGNQLLPVSLVKRKTTLAPNTQTASPRALADSLMQLARQVSRLESGQ",dose-response phenotype (in words),,reduced G∞ but G0 and EC50 similar to the wild type
